Assay results published in PMC12416549 (2024).

B1: A105W (designed binder)
chain: SMEEEVEKAAKEYEKKKKEAIEKHLEKLKAKDKEAAERFLKELEEAAKEYAKDEAKTMSEEEAKRRAKKYKEKVLLSELSEEEQKEIKEAEEKLVRTILKYVEEWAK
B2: K73R (designed binder)
chain: SMEEEVEKAAKEYEKKKKEAIEKHLEKLKAKDKEAAERFLKELEEAAKEYAKDEAKTMSEEEAKRRAKKYKERVLLSELSEEEQKEIKEAEEKLVRTILKYVEEAAK
B3: R38T (designed binder)
chain: SMEEEVEKAAKEYEKKKKEAIEKHLEKLKAKDKEAAETFLKELEEAAKEYAKDEAKTMSEEEAKRRAKKYKEKVLLSELSEEEQKEIKEAEEKLVRTILKYVEEAAK
B4: K41D (designed binder)
chain: SMEEEVEKAAKEYEKKKKEAIEKHLEKLKAKDKEAAERFLDELEEAAKEYAKDEAKTMSEEEAKRRAKKYKEKVLLSELSEEEQKEIKEAEEKLVRTILKYVEEAAK
B5: A90E (designed binder)
chain: SMEEEVEKAAKEYEKKKKEAIEKHLEKLKAKDKEAAERFLKELEEAAKEYAKDEAKTMSEEEAKRRAKKYKEKVLLSELSEEEQKEIKEEEEKLVRTILKYVEEAAK
B6: E7K (designed binder)
chain: SMEEEVKKAAKEYEKKKKEAIEKHLEKLKAKDKEAAERFLKELEEAAKEYAKDEAKTMSEEEAKRRAKKYKEKVLLSELSEEEQKEIKEAEEKLVRTILKYVEEAAK
B7: K48G (designed binder)
chain: SMEEEVEKAAKEYEKKKKEAIEKHLEKLKAKDKEAAERFLKELEEAAGEYAKDEAKTMSEEEAKRRAKKYKEKVLLSELSEEEQKEIKEAEEKLVRTILKYVEEAAK
B8: A90M (designed binder)
chain: SMEEEVEKAAKEYEKKKKEAIEKHLEKLKAKDKEAAERFLKELEEAAKEYAKDEAKTMSEEEAKRRAKKYKEKVLLSELSEEEQKEIKEMEEKLVRTILKYVEEAAK
B9: D32P (designed binder)
chain: SMEEEVEKAAKEYEKKKKEAIEKHLEKLKAKPKEAAERFLKELEEAAKEYAKDEAKTMSEEEAKRRAKKYKEKVLLSELSEEEQKEIKEAEEKLVRTILKYVEEAAK
B10: E103Q (designed binder)
chain: SMEEEVEKAAKEYEKKKKEAIEKHLEKLKAKDKEAAERFLKELEEAAKEYAKDEAKTMSEEEAKRRAKKYKEKVLLSELSEEEQKEIKEAEEKLVRTILKYVQEAAK
B11: L40H (designed binder)
chain: SMEEEVEKAAKEYEKKKKEAIEKHLEKLKAKDKEAAERFHKELEEAAKEYAKDEAKTMSEEEAKRRAKKYKEKVLLSELSEEEQKEIKEAEEKLVRTILKYVEEAAK
B12: K18T (designed binder)
chain: SMEEEVEKAAKEYEKKKTEAIEKHLEKLKAKDKEAAERFLKELEEAAKEYAKDEAKTMSEEEAKRRAKKYKEKVLLSELSEEEQKEIKEAEEKLVRTILKYVEEAAK
B13: S59H (designed binder)
chain: SMEEEVEKAAKEYEKKKKEAIEKHLEKLKAKDKEAAERFLKELEEAAKEYAKDEAKTMHEEEAKRRAKKYKEKVLLSELSEEEQKEIKEAEEKLVRTILKYVEEAAK
B14: E62V (designed binder)
chain: SMEEEVEKAAKEYEKKKKEAIEKHLEKLKAKDKEAAERFLKELEEAAKEYAKDEAKTMSEEVAKRRAKKYKEKVLLSELSEEEQKEIKEAEEKLVRTILKYVEEAAK
B15: E54V (designed binder)
chain: SMEEEVEKAAKEYEKKKKEAIEKHLEKLKAKDKEAAERFLKELEEAAKEYAKDVAKTMSEEEAKRRAKKYKEKVLLSELSEEEQKEIKEAEEKLVRTILKYVEEAAK
B16: K11R (designed binder)
chain: SMEEEVEKAAREYEKKKKEAIEKHLEKLKAKDKEAAERFLKELEEAAKEYAKDEAKTMSEEEAKRRAKKYKEKVLLSELSEEEQKEIKEAEEKLVRTILKYVEEAAK
B17: Y70V (designed binder)
chain: SMEEEVEKAAKEYEKKKKEAIEKHLEKLKAKDKEAAERFLKELEEAAKEYAKDEAKTMSEEEAKRRAKKVKEKVLLSELSEEEQKEIKEAEEKLVRTILKYVEEAAK
B18: E22F (designed binder)
chain: SMEEEVEKAAKEYEKKKKEAIFKHLEKLKAKDKEAAERFLKELEEAAKEYAKDEAKTMSEEEAKRRAKKYKEKVLLSELSEEEQKEIKEAEEKLVRTILKYVEEAAK
B19: L99G (designed binder)
chain: SMEEEVEKAAKEYEKKKKEAIEKHLEKLKAKDKEAAERFLKELEEAAKEYAKDEAKTMSEEEAKRRAKKYKEKVLLSELSEEEQKEIKEAEEKLVRTIGKYVEEAAK
B20: E60H (designed binder)
chain: SMEEEVEKAAKEYEKKKKEAIEKHLEKLKAKDKEAAERFLKELEEAAKEYAKDEAKTMSHEEAKRRAKKYKEKVLLSELSEEEQKEIKEAEEKLVRTILKYVEEAAK
B21: A36Q (designed binder)
chain: SMEEEVEKAAKEYEKKKKEAIEKHLEKLKAKDKEAQERFLKELEEAAKEYAKDEAKTMSEEEAKRRAKKYKEKVLLSELSEEEQKEIKEAEEKLVRTILKYVEEAAK
B22: K17R (designed binder)
chain: SMEEEVEKAAKEYEKKRKEAIEKHLEKLKAKDKEAAERFLKELEEAAKEYAKDEAKTMSEEEAKRRAKKYKEKVLLSELSEEEQKEIKEAEEKLVRTILKYVEEAAK
B23: L75F (designed binder)
chain: SMEEEVEKAAKEYEKKKKEAIEKHLEKLKAKDKEAAERFLKELEEAAKEYAKDEAKTMSEEEAKRRAKKYKEKVFLSELSEEEQKEIKEAEEKLVRTILKYVEEAAK
B24: L40G (designed binder)
chain: SMEEEVEKAAKEYEKKKKEAIEKHLEKLKAKDKEAAERFGKELEEAAKEYAKDEAKTMSEEEAKRRAKKYKEKVLLSELSEEEQKEIKEAEEKLVRTILKYVEEAAK
B25: E91T (designed binder)
chain: SMEEEVEKAAKEYEKKKKEAIEKHLEKLKAKDKEAAERFLKELEEAAKEYAKDEAKTMSEEEAKRRAKKYKEKVLLSELSEEEQKEIKEATEKLVRTILKYVEEAAK
B26: E60P (designed binder)
chain: SMEEEVEKAAKEYEKKKKEAIEKHLEKLKAKDKEAAERFLKELEEAAKEYAKDEAKTMSPEEAKRRAKKYKEKVLLSELSEEEQKEIKEAEEKLVRTILKYVEEAAK
B27: A46Q (designed binder)
chain: SMEEEVEKAAKEYEKKKKEAIEKHLEKLKAKDKEAAERFLKELEEQAKEYAKDEAKTMSEEEAKRRAKKYKEKVLLSELSEEEQKEIKEAEEKLVRTILKYVEEAAK
B28: E12A (designed binder)
chain: SMEEEVEKAAKAYEKKKKEAIEKHLEKLKAKDKEAAERFLKELEEAAKEYAKDEAKTMSEEEAKRRAKKYKEKVLLSELSEEEQKEIKEAEEKLVRTILKYVEEAAK
B29: A35H (designed binder)
chain: SMEEEVEKAAKEYEKKKKEAIEKHLEKLKAKDKEHAERFLKELEEAAKEYAKDEAKTMSEEEAKRRAKKYKEKVLLSELSEEEQKEIKEAEEKLVRTILKYVEEAAK
B30: K16L (designed binder)
chain: SMEEEVEKAAKEYEKLKKEAIEKHLEKLKAKDKEAAERFLKELEEAAKEYAKDEAKTMSEEEAKRRAKKYKEKVLLSELSEEEQKEIKEAEEKLVRTILKYVEEAAK
B31: I98D (designed binder)
chain: SMEEEVEKAAKEYEKKKKEAIEKHLEKLKAKDKEAAERFLKELEEAAKEYAKDEAKTMSEEEAKRRAKKYKEKVLLSELSEEEQKEIKEAEEKLVRTDLKYVEEAAK
B32: A105S (designed binder)
chain: SMEEEVEKAAKEYEKKKKEAIEKHLEKLKAKDKEAAERFLKELEEAAKEYAKDEAKTMSEEEAKRRAKKYKEKVLLSELSEEEQKEIKEAEEKLVRTILKYVEESAK
B33: E19Q (designed binder)
chain: SMEEEVEKAAKEYEKKKKQAIEKHLEKLKAKDKEAAERFLKELEEAAKEYAKDEAKTMSEEEAKRRAKKYKEKVLLSELSEEEQKEIKEAEEKLVRTILKYVEEAAK
B34: E91D (designed binder)
chain: SMEEEVEKAAKEYEKKKKEAIEKHLEKLKAKDKEAAERFLKELEEAAKEYAKDEAKTMSEEEAKRRAKKYKEKVLLSELSEEEQKEIKEADEKLVRTILKYVEEAAK
B35: A106V (designed binder)
chain: SMEEEVEKAAKEYEKKKKEAIEKHLEKLKAKDKEAAERFLKELEEAAKEYAKDEAKTMSEEEAKRRAKKYKEKVLLSELSEEEQKEIKEAEEKLVRTILKYVEEAVK

Target: T1, TNFR1 (Homo sapiens, UniProt P19438)
T1 chain: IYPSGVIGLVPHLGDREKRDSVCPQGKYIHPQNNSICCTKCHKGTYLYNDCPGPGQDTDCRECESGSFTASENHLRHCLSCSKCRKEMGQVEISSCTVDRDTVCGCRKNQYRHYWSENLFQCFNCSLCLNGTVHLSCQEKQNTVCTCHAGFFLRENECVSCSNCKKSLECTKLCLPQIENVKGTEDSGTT
Test: yeast display SC50

Binder | apparent Kd (screen)
B1 | 13.8 nM
B2 | 9.41 nM
B3 | 2.05 nM
B4 | 0.539 nM
B5 | 0.49 nM
B6 | 4.39 nM
B7 | 0.49 nM
B8 | 0.446 nM
B9 | 8.56 nM
B10 | 0.49 nM
B11 | 0.49 nM
B12 | 1.16 nM
B13 | 0.593 nM
B14 | 2.73 nM
B15 | 20.2 nM
B16 | 0.593 nM
B17 | 22.2 nM
B18 | 0.593 nM

Binder | apparent Kd (screen)
B19 | 5.31 nM
B20 | 0.593 nM
B21 | 0.653 nM
B22 | 0.653 nM
B23 | 0.869 nM
B24 | 0.446 nM
B25 | 7.07 nM
B26 | 2.05 nM
B27 | 0.539 nM
B28 | 0.446 nM
B29 | 1.05 nM
B30 | 0.446 nM
B31 | 1.86 nM
B32 | 0.956 nM
B33 | 0.49 nM
B34 | 0.446 nM
B35 | 2.73 nM
